Results taken from patent publication US8017735B2, “Anti-IGFR1 antibody therapeutic combinations” (Schering Corporation, priority 2003, dated 2011).
Several values for one entry are separate records, joined by “and”; a condition that tells them apart may be missing. Equal values may be shown once.

How the values were obtained:
MCF7 cells = assay: Proliferation assay (Cell Titer-Glo) with anti-IGFR1 antibody and a chemotherapeutic agent, MCF7 cells; type: cell-based
Method: (§1) The ability of cells in culture to proliferate when exposed to varying concentrations of the 19D12/15H12 wild-type or 19D12/15H12 LCF/HCA anti-IGFR1 antibody and either paclitaxel, gefitinib, lonafarnib 4-hydroxy tamoxifen or doxorubicin was evaluated in this example.
(§2) Cell Preparation. […] The cells were trypsinized, counted and resuspended at a concentration of 25000 cells/ml in 10% HI-FBS (heat-inactivated fetal bovine serum) RPMI medium containing NEAA (non-essential amino acids), L-Glu, MEM Vitamins and PS. 100 ul of cell suspension (2500 cells) was added to each well of a BD Falcon 96 well black, clear bottom TC treated plate. The cells were allowed to attach and spread overnight at 37° C. The 10% RPMI solution was replaced with 100 μl RPMI containing 2% HI-FBS containing NEAA, L-Glu, MEM Vitamins and PS.
(§3) Solution Preparation. All assay reagents were prepared in RPMI containing 2% HI-FBS at 20× concentration and serial diluted for a total of 10 test concentrations per treatment. Every test point was prepared in triplicate on separate assay plates.
(§4) Reagent 1 and 19D12/15H12 or 19D12/15H12 LCF/HCA were set up individually as dose responses as well as in combination with each other. Cell proliferation was measured on Day4.
(§5) Assay. Cell proliferation was measured using the Promega Cell Titer-Glo Luminescent Cell Viability Assay (Promega Corp.; Madison, Wis.). This assay provided a method for determining the number of viable cells in culture based on quantitation of ATP in the culture, which indicates the presence of metabolically active cells.
(§6) The assay reagents and assay plates were equilibrated to room temperature and prepared immediately before addition to the assay plates. One volume of assay reagent was added to each well of the assay plate and shaken on an orbital platform for at least ten minutes to allow for equilibration of the ATP reaction and to ensure total lysis of all cells in the assay plate. […] Luminescence was detected on Wallac 420 Plate Reader with stacker.
(§7) The units in the tables (proliferation index) are arbitrary and are proportional to the number of viable cells observed in the culture under each respective condition.
(§8) In Tables 2-6, “ug” indicates micrograms and “uM” indicates micromolar.

H322 NSCLC cells = assay: Proliferation assay (Cell Titer-Glo) with anti-IGFR1 antibody and a chemotherapeutic agent, H322 NSCLC cells; type: cell-based, human; details: H322, Day4, replicates
Method: as §1, §2, §3, §4, §5, §6, §7, §8

## CC/C(=C(\c1ccc(O)cc1)c1ccc(OCCN(C)C)cc1)c1ccccc1 [4-hydroxy tamoxifen, 4-hydroxytamoxifen, reference compound]
MCF7 cells; 4-hydroxy tamoxifen alone 20000 ng/mL
  proliferation index: 80 and 72 and 87 and 71 and 61 and 67 and 70 and 92

## COc1cc2ncnc(Nc3ccc(F)c(Cl)c3)c2cc1OCCCN1CCOCC1 [Iressa, 4-(3-chloro-4-fluoroanilino)-7-methoxy-6-(3-morpholinopropoxy)quinazoline]
H322 NSCLC cells; Iressa alone 0.0512 nM
  proliferation index: 59448 and 76032 and 61018 and 59690 and 63252 and 63688 and 60730 and 74464 and 65802
H322 NSCLC cells; Iressa alone 0.256 nM
  proliferation index: 56752 and 73246 and 58760 and 59474 and 57314 and 58384 and 59448 and 66806 and 64854
H322 NSCLC cells; Iressa alone 32 nM
  proliferation index: 45712 and 58272 and 41264 and 40992 and 44162 and 42054 and 43124 and 45062 and 41426
H322 NSCLC cells; Iressa alone 160 nM
  proliferation index: 35044 and 43832 and 32072 and 32728 and 33532 and 35078 and 34864 and 36144 and 34946
H322 NSCLC cells; Iressa alone 4000 nM
  proliferation index: 27738 and 27810 and 24546 and 24376 and 26742 and 28156 and 24528 and 28442 and 27026
H322 NSCLC cells; Iressa alone 20000 nM
  proliferation index: 10818 and 11294 and 10994 and 9734

B1: 19D12/15H12 LCF/HCA: monoclonal, fully-human anti-IGFR1 antibody: mature light chain F (SEQ ID NO: 2) paired with mature heavy chain A (SEQ ID NO: 4) (antibody, listed as Homo sapiens, V domains shown)
VH: MEFGLSWVFLVAILKGVQCEVQLVQSGGGLVKPGGSLRLSCAASGFTFSSFAMHWVRQAPGKGLEWISVIDTRGATYYADSVKGRFTISRDNAKNSLYLQMNSLRAEDTAVYYCARLGNFYYGMDVWGQGTTVTVSS
VL: MSPSQLIGFLLLWVPASRGEIVLTQSPGTLSVSPGERATLSCRASQSIGSSLHWYQQKPGQAPRLLIKYASQSLSGIPDRFSGSGSGTDFTLTISRLEPEDFAVYYCHQSSRLPHTFGQGTKVEIKRT
H322 NSCLC cells; antibody alone 0.000256 nM (Table 2 plates)
  proliferation index: 73420 and 74154 and 83338 and 74108 and 84234 and 83206 and 80894 and 82674 and 71784
H322 NSCLC cells; antibody alone 0.0064 nM (Table 2 plates)
  proliferation index: 61654 and 79014 and 72998 and 69060 and 64818 and 74862 and 76374 and 68206 and 70226
H322 NSCLC cells; antibody alone 0.8 nM (Table 2 plates)
  proliferation index: 40944 and 47470 and 52010 and 49636 and 55228 and 53706 and 56984 and 49396 and 47080
H322 NSCLC cells; antibody alone 0.8 nM (Table 3 plates)
  proliferation index: 49206
H322 NSCLC cells; antibody alone 4 nM (Table 2 plates)
  proliferation index: 42312 and 48884 and 49992 and 50508 and 47256 and 56998 and 54966 and 51438 and 44700
H322 NSCLC cells; antibody alone 20 nM (Table 2 plates)
  proliferation index: 44120 and 55106 and 50680 and 49038 and 56114 and 52446 and 51826 and 52490 and 48302
H322 NSCLC cells; antibody alone 20 nM (Table 3 plates)
  proliferation index: 51960 and 58598 and 48444 and 49156 and 51020 and 48730 and 49684 and 45064 and 52120
H322 NSCLC cells; antibody alone 5.12E−05 nM (Table 2 plates)
  proliferation index: 74408 and 87030 and 83636 and 79810 and 79650 and 90294 and 88940 and 86762 and 74996

B2: 19D12/15H12: 19D12/15H12 wild-type anti-IGFR1 antibody (antibody, listed as Homo sapiens, V domains shown)
VL: MSPSQLIGFLLLWVPASRGEIVLTQSPGTLSVSPGERATLSCRASQSIGSSLHWYQQKPGQAPRLLIKYASQSLSGIPDRFSGSGSGTDFTLTISRLEPEDFAVYYCHQSSRLPHTFGQGTKVEIKRT
VH: MEFGLSWVFLVAILKGVQCEVQLVQSGGGLVKPGGSLRLSCAASGFTFSSFAMHWVRQAPGKGLEWISVIDTRGATYYADSVKGRFTISRDNAKNSLYLQMNSLRAEDTAVYYCARLGNFYYGMDVWGQGTTVTVSS
MCF7 cells; 19D12/15H12 0.00001024 nM + doxorubicin 0.00001024 ug/mL
  Proliferation of MCF7 cells: 101144
MCF7 cells; 19D12/15H12 0.00001024 nM + doxorubicin 0.0000512 ug/mL
  Proliferation of MCF7 cells: 102670
MCF7 cells; 19D12/15H12 0.00001024 nM + doxorubicin 0.000256 ug/mL
  Proliferation of MCF7 cells: 100293
MCF7 cells; 19D12/15H12 0.00001024 nM + doxorubicin 0.0064 ug/mL
  Proliferation of MCF7 cells: 95276
MCF7 cells; 19D12/15H12 0.00001024 nM + doxorubicin 0.8 ug/mL
  Proliferation of MCF7 cells: 5132
MCF7 cells; 19D12/15H12 0.00001024 nM + doxorubicin 4 ug/mL
  Proliferation of MCF7 cells: 12606
MCF7 cells; 19D12/15H12 0.00001024 nM + doxorubicin 20 ug/mL
  Proliferation of MCF7 cells: 7789
MCF7 cells; 19D12/15H12 0.0000512 nM + doxorubicin 0.00001024 ug/mL
  Proliferation of MCF7 cells: 111388
MCF7 cells; 19D12/15H12 0.0000512 nM + doxorubicin 0.0000512 ug/mL
  Proliferation of MCF7 cells: 106322
MCF7 cells; 19D12/15H12 0.0000512 nM + doxorubicin 0.000256 ug/mL
  Proliferation of MCF7 cells: 107406
MCF7 cells; 19D12/15H12 0.0000512 nM + doxorubicin 0.0064 ug/mL
  Proliferation of MCF7 cells: 93794
MCF7 cells; 19D12/15H12 0.0000512 nM + doxorubicin 0.8 ug/mL
  Proliferation of MCF7 cells: 5649
MCF7 cells; 19D12/15H12 0.0000512 nM + doxorubicin 4 ug/mL
  Proliferation of MCF7 cells: 11124
MCF7 cells; 19D12/15H12 0.0000512 nM + doxorubicin 20 ug/mL
  Proliferation of MCF7 cells: 6793
MCF7 cells; 19D12/15H12 0.000256 nM + doxorubicin 0.00001024 ug/mL
  Proliferation of MCF7 cells: 86861
MCF7 cells; 19D12/15H12 0.000256 nM + doxorubicin 0.0000512 ug/mL
  Proliferation of MCF7 cells: 76193
MCF7 cells; 19D12/15H12 0.000256 nM + doxorubicin 0.000256 ug/mL
  Proliferation of MCF7 cells: 74312
MCF7 cells; 19D12/15H12 0.000256 nM + doxorubicin 0.0064 ug/mL
  Proliferation of MCF7 cells: 70725
MCF7 cells; 19D12/15H12 0.000256 nM + doxorubicin 0.8 ug/mL
  Proliferation of MCF7 cells: 5698
MCF7 cells; 19D12/15H12 0.000256 nM + doxorubicin 4 ug/mL
  Proliferation of MCF7 cells: 13174
MCF7 cells; 19D12/15H12 0.000256 nM + doxorubicin 20 ug/mL
  Proliferation of MCF7 cells: 6667
MCF7 cells; 19D12/15H12 0.0064 nM + doxorubicin 0.00001024 ug/mL
  Proliferation of MCF7 cells: 60936
MCF7 cells; 19D12/15H12 0.0064 nM + doxorubicin 0.0000512 ug/mL
  Proliferation of MCF7 cells: 60524
MCF7 cells; 19D12/15H12 0.0064 nM + doxorubicin 0.000256 ug/mL
  Proliferation of MCF7 cells: 61820
MCF7 cells; 19D12/15H12 0.0064 nM + doxorubicin 0.0064 ug/mL
  Proliferation of MCF7 cells: 53583
MCF7 cells; 19D12/15H12 0.0064 nM + doxorubicin 0.8 ug/mL
  Proliferation of MCF7 cells: 4702
MCF7 cells; 19D12/15H12 0.0064 nM + doxorubicin 4 ug/mL
  Proliferation of MCF7 cells: 10648
MCF7 cells; 19D12/15H12 0.0064 nM + doxorubicin 20 ug/mL
  Proliferation of MCF7 cells: 7057
MCF7 cells; 19D12/15H12 0.8 nM + doxorubicin 0.00001024 ug/mL
  Proliferation of MCF7 cells: 70307
MCF7 cells; 19D12/15H12 0.8 nM + doxorubicin 0.0000512 ug/mL
  Proliferation of MCF7 cells: 64429
MCF7 cells; 19D12/15H12 0.8 nM + doxorubicin 0.000256 ug/mL
  Proliferation of MCF7 cells: 60055
MCF7 cells; 19D12/15H12 0.8 nM + doxorubicin 0.0064 ug/mL
  Proliferation of MCF7 cells: 56538
MCF7 cells; 19D12/15H12 0.8 nM + doxorubicin 0.8 ug/mL
  Proliferation of MCF7 cells: 4916
MCF7 cells; 19D12/15H12 0.8 nM + doxorubicin 4 ug/mL
  Proliferation of MCF7 cells: 11778
MCF7 cells; 19D12/15H12 0.8 nM + doxorubicin 20 ug/mL
  Proliferation of MCF7 cells: 7693
MCF7 cells; 19D12/15H12 4 nM + doxorubicin 0.00001024 ug/mL
  Proliferation of MCF7 cells: 61992
MCF7 cells; 19D12/15H12 4 nM + doxorubicin 0.0000512 ug/mL
  Proliferation of MCF7 cells: 57611
MCF7 cells; 19D12/15H12 4 nM + doxorubicin 0.000256 ug/mL
  Proliferation of MCF7 cells: 58980
MCF7 cells; 19D12/15H12 4 nM + doxorubicin 0.0064 ug/mL
  Proliferation of MCF7 cells: 53567
MCF7 cells; 19D12/15H12 4 nM + doxorubicin 0.8 ug/mL
  Proliferation of MCF7 cells: 4259
MCF7 cells; 19D12/15H12 4 nM + doxorubicin 4 ug/mL
  Proliferation of MCF7 cells: 12760
MCF7 cells; 19D12/15H12 4 nM + doxorubicin 20 ug/mL
  Proliferation of MCF7 cells: 8097
MCF7 cells; 19D12/15H12 20 nM + doxorubicin 0.00001024 ug/mL
  Proliferation of MCF7 cells: 59288
MCF7 cells; 19D12/15H12 20 nM + doxorubicin 0.0000512 ug/mL
  Proliferation of MCF7 cells: 60307
MCF7 cells; 19D12/15H12 20 nM + doxorubicin 0.000256 ug/mL
  Proliferation of MCF7 cells: 62242
MCF7 cells; 19D12/15H12 20 nM + doxorubicin 0.0064 ug/mL
  Proliferation of MCF7 cells: 54983
MCF7 cells; 19D12/15H12 20 nM + doxorubicin 0.8 ug/mL
  Proliferation of MCF7 cells: 5202
MCF7 cells; 19D12/15H12 20 nM + doxorubicin 4 ug/mL
  Proliferation of MCF7 cells: 10465
MCF7 cells; 19D12/15H12 20 nM + doxorubicin 20 ug/mL
  Proliferation of MCF7 cells: 7489
